Assays:
Assay in all cases: cell-based or functional assay
[1] = target: ACTR variant SEQ ID NO: 10
[2] = target: ACTR variant SEQ ID NO: 57
[3] = target: ACTR variant SEQ ID NO: 58
[4] = target: ACTR variant SEQ ID NO: 59
[5] = target: ACTR variant SEQ ID NO: 60
[6] = target: ACTR variant SEQ ID NO: 61
[7] = target: ACTR variant SEQ ID NO: 62
[8] = target: ACTR variant SEQ ID NO: 63
[9] = target: ACTR variant SEQ ID NO: 7
ACTR variant SEQ ID NO: 7, sequence (chain, as listed by the source mutant limits assumed): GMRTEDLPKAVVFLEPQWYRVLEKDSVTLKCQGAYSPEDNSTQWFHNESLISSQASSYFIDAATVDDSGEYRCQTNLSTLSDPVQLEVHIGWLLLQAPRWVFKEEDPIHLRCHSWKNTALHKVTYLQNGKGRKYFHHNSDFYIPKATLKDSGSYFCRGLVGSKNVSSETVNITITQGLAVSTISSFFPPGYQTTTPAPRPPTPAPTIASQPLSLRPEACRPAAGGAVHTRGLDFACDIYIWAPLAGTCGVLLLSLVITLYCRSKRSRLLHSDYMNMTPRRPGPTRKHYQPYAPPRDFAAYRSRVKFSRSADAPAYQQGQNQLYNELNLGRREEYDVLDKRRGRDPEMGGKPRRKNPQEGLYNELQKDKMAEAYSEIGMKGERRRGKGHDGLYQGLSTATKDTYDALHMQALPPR

ACTR variant SEQ ID NO: 60, sequence (chain, as listed by the source mutant limits assumed): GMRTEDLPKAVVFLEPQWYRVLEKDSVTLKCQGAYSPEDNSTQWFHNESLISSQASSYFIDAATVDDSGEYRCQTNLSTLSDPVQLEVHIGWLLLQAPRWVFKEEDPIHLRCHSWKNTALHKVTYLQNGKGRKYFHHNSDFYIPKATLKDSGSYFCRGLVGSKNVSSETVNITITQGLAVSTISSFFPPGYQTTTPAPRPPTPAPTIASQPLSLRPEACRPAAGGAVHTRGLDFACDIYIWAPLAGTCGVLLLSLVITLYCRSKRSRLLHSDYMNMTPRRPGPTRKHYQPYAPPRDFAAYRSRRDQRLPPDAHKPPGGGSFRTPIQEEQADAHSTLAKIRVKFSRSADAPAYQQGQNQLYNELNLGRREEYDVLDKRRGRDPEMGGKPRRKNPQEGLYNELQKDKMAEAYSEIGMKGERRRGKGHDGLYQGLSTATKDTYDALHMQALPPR
ACTR variant SEQ ID NO: 58, sequence (chain, as listed by the source mutant): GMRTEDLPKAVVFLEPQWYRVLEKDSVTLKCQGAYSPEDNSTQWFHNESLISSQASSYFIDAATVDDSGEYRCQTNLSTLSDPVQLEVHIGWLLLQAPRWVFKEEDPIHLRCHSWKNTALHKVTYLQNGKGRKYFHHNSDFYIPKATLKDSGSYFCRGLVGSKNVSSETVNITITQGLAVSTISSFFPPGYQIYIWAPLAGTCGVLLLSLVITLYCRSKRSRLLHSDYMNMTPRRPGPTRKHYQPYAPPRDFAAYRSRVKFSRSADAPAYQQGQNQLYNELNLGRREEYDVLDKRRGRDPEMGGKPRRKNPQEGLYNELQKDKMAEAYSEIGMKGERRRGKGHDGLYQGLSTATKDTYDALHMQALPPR
ACTR variant SEQ ID NO: 10, sequence (chain, as listed by the source mutant limits assumed): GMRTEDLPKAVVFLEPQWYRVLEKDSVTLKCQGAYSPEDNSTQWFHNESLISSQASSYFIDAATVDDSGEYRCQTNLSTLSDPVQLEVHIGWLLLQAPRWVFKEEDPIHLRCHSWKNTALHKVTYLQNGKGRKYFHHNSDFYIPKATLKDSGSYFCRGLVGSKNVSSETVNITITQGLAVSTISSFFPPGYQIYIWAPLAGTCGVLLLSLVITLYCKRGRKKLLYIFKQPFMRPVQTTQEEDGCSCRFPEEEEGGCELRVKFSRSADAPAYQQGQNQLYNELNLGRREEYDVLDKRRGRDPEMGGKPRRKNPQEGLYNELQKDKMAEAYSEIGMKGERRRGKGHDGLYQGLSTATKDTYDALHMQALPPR
ACTR variant SEQ ID NO: 57, sequence (chain, as listed by the source mutant): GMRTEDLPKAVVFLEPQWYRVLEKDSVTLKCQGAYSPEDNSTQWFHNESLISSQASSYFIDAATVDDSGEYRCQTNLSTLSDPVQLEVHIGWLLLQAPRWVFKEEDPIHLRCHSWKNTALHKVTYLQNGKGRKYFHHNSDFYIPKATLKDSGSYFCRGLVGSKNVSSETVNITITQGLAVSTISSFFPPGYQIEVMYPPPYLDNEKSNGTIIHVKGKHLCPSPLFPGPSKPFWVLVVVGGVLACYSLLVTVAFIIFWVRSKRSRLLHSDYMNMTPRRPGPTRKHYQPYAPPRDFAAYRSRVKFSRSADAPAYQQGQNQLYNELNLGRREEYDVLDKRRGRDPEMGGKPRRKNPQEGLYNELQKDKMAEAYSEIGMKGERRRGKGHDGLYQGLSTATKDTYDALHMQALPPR
ACTR variant SEQ ID NO: 61, sequence (chain, as listed by the source mutant limits assumed): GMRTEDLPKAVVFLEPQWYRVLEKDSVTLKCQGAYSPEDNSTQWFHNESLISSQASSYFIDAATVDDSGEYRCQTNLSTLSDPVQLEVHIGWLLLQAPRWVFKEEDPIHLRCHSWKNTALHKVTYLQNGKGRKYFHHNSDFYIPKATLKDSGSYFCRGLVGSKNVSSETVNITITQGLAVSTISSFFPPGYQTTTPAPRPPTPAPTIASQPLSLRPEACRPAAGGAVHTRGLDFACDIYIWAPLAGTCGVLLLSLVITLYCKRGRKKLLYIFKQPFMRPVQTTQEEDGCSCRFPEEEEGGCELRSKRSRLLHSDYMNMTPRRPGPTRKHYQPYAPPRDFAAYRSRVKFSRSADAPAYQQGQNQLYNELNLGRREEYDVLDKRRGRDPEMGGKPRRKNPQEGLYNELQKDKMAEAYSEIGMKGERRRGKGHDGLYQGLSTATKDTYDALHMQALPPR
ACTR variant SEQ ID NO: 59, sequence (chain, as listed by the source mutant limits assumed): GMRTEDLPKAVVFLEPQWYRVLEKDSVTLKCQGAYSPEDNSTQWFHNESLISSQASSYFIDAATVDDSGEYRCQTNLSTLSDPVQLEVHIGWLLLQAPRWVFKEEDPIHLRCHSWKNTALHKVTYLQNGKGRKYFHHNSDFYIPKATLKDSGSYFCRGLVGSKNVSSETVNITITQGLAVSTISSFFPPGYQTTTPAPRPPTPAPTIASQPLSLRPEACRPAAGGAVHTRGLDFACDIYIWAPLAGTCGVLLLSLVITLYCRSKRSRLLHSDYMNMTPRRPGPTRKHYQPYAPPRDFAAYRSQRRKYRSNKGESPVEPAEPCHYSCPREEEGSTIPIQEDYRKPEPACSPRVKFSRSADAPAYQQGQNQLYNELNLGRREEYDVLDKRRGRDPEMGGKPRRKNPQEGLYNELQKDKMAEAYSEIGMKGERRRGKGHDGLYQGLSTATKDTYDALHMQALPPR
ACTR variant SEQ ID NO: 63, sequence (chain, as listed by the source mutant limits assumed): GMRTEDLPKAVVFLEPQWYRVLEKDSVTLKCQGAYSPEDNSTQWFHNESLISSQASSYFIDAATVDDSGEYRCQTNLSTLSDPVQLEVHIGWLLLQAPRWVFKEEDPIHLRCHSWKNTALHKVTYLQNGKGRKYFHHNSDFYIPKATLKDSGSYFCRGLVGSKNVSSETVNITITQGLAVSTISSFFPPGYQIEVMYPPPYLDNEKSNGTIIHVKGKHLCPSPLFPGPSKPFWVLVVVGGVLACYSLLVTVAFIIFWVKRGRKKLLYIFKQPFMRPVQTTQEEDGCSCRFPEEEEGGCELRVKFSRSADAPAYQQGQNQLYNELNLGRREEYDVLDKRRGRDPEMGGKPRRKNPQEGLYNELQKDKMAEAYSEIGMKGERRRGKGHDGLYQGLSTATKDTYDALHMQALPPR
ACTR variant SEQ ID NO: 62, sequence (chain, as listed by the source mutant limits assumed): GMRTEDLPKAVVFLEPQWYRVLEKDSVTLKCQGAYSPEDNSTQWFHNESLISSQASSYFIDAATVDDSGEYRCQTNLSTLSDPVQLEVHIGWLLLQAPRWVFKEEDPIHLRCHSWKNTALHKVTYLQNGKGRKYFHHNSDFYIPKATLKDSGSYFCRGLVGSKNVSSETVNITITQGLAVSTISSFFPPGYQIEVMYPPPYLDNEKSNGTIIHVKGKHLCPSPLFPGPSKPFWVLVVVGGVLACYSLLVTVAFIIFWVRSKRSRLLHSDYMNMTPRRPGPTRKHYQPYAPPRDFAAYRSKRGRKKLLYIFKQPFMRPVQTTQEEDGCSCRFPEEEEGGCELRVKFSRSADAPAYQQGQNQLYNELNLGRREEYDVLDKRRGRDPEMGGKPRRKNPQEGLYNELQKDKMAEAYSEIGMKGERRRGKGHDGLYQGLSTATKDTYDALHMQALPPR

B1: humanized afucosylated (SEA) anti-BCMA antibody hSG16.17SEA (antibody, V domains shown)
VH: QVQLVQSGAEVKKPGASVKLSCKASGYTFTDYYIHWVRQAPGQGLEWIGYINPNSGYTNYAQKFQGRATMTADKSINTAYVELSRLRSDDTAVYFCTRYMWERVTGFFDFWGQGTMVTVSS
VL: DIQMTQSPSSVSASVGDRVTITCLASEDISDDLAWYQQKPGKAPKVLVYTTSSLQSGVPSRFSGSGSGTDFTLTISSLQPEDFATYFCQQTYKFPPTFGGGTKVEIKR
**Q.** With B1 as the binder, how does the IFNγ Release (pg/mL), ACTR T cells + NCI-H929 Target Cells + hSG16.17SEA (1 µg/mL) [1] read?
**A.** 19800 pg/mL

**Q.** What about the IFNγ Release (pg/mL), ACTR T cells + U266B1 Target Cells + hSG16.17SEA (1 µg/mL) [1] of the same binder?
**A.** 7970 pg/mL

**Q.** And the IL-2 Release (pg/mL), ACTR T cells + NCI-H929 Target Cells + hSG16.17SEA (1 µg/mL) [1]?
**A.** 224 pg/mL

**Q.** What about the IL-2 Release (pg/mL), ACTR T cells + U266B1 Target Cells + hSG16.17SEA (1 µg/mL) [1] of the same binder?
**A.** 260 pg/mL

**Q.** And the T-cell proliferation: fold increase in CD3+ cells at 1 µg/mL hSG16.17SEA relative to no antibody, NCI-H929 Target Cells [1]?
**A.** 7.46 fold

**Q.** What about the T-cell proliferation: fold increase in CD3+ cells at 1 µg/mL hSG16.17SEA relative to no antibody, U266B1 Target Cells [1] of the same binder?
**A.** 1.62 fold

**Q.** And the IFNγ Release (pg/mL), ACTR T cells + NCI-H929 Target Cells + hSG16.17SEA (1 µg/mL) [2]?
**A.** 16700 pg/mL

**Q.** What about the IFNγ Release (pg/mL), ACTR T cells + U266B1 Target Cells + hSG16.17SEA (1 µg/mL) [2] of the same binder?
**A.** 12600 pg/mL

**Q.** What about the IL-2 Release (pg/mL), ACTR T cells + NCI-H929 Target Cells + hSG16.17SEA (1 µg/mL) [2] of the same binder?
**A.** 373 pg/mL

**Q.** What about the IL-2 Release (pg/mL), ACTR T cells + U266B1 Target Cells + hSG16.17SEA (1 µg/mL) [2] of the same binder?
**A.** 187 pg/mL

**Q.** And the T-cell proliferation: fold increase in CD3+ cells at 1 µg/mL hSG16.17SEA relative to no antibody, NCI-H929 Target Cells [2]?
**A.** 35.5 fold

**Q.** And the T-cell proliferation: fold increase in CD3+ cells at 1 µg/mL hSG16.17SEA relative to no antibody, U266B1 Target Cells [2]?
**A.** 49.5 fold

**Q.** What about the IFNγ Release (pg/mL), ACTR T cells + NCI-H929 Target Cells + hSG16.17SEA (1 µg/mL) [3] of the same binder?
**A.** 16800 pg/mL

**Q.** What about the IFNγ Release (pg/mL), ACTR T cells + U266B1 Target Cells + hSG16.17SEA (1 µg/mL) [3] of the same binder?
**A.** 12700 pg/mL

**Q.** And the IL-2 Release (pg/mL), ACTR T cells + NCI-H929 Target Cells + hSG16.17SEA (1 µg/mL) [3]?
**A.** 420 pg/mL

**Q.** And the IL-2 Release (pg/mL), ACTR T cells + U266B1 Target Cells + hSG16.17SEA (1 µg/mL) [3]?
**A.** 17.8 pg/mL

**Q.** And the T-cell proliferation: fold increase in CD3+ cells at 1 µg/mL hSG16.17SEA relative to no antibody, NCI-H929 Target Cells [3]?
**A.** 9.76 fold

**Q.** What about the T-cell proliferation: fold increase in CD3+ cells at 1 µg/mL hSG16.17SEA relative to no antibody, U266B1 Target Cells [3] of the same binder?
**A.** 4.75 fold

**Q.** What about the IFNγ Release (pg/mL), ACTR T cells + NCI-H929 Target Cells + hSG16.17SEA (1 µg/mL) [4] of the same binder?
**A.** 17100 pg/mL

**Q.** What about the IFNγ Release (pg/mL), ACTR T cells + U266B1 Target Cells + hSG16.17SEA (1 µg/mL) [4] of the same binder?
**A.** 12600 pg/mL

**Q.** And the IL-2 Release (pg/mL), ACTR T cells + NCI-H929 Target Cells + hSG16.17SEA (1 µg/mL) [4]?
**A.** 46.6 pg/mL

**Q.** What about the IL-2 Release (pg/mL), ACTR T cells + U266B1 Target Cells + hSG16.17SEA (1 µg/mL) [4] of the same binder?
**A.** 214 pg/mL

**Q.** What about the T-cell proliferation: fold increase in CD3+ cells at 1 µg/mL hSG16.17SEA relative to no antibody, NCI-H929 Target Cells [4] of the same binder?
**A.** 11.5 fold

**Q.** What about the T-cell proliferation: fold increase in CD3+ cells at 1 µg/mL hSG16.17SEA relative to no antibody, U266B1 Target Cells [4] of the same binder?
**A.** 6.91 fold

**Q.** And the IFNγ Release (pg/mL), ACTR T cells + NCI-H929 Target Cells + hSG16.17SEA (1 µg/mL) [5]?
**A.** 18600 pg/mL

**Q.** And the IFNγ Release (pg/mL), ACTR T cells + U266B1 Target Cells + hSG16.17SEA (1 µg/mL) [5]?
**A.** 14400 pg/mL

**Q.** What about the IL-2 Release (pg/mL), ACTR T cells + NCI-H929 Target Cells + hSG16.17SEA (1 µg/mL) [5] of the same binder?
**A.** 258 pg/mL

**Q.** What about the IL-2 Release (pg/mL), ACTR T cells + U266B1 Target Cells + hSG16.17SEA (1 µg/mL) [5] of the same binder?
**A.** 48.6 pg/mL

**Q.** And the T-cell proliferation: fold increase in CD3+ cells at 1 µg/mL hSG16.17SEA relative to no antibody, NCI-H929 Target Cells [5]?
**A.** 18.3 fold

**Q.** And the T-cell proliferation: fold increase in CD3+ cells at 1 µg/mL hSG16.17SEA relative to no antibody, U266B1 Target Cells [5]?
**A.** 11.7 fold

**Q.** What about the IFNγ Release (pg/mL), ACTR T cells + NCI-H929 Target Cells + hSG16.17SEA (1 µg/mL) [6] of the same binder?
**A.** 22900 pg/mL

**Q.** And the IFNγ Release (pg/mL), ACTR T cells + U266B1 Target Cells + hSG16.17SEA (1 µg/mL) [6]?
**A.** 11600 pg/mL

**Q.** What about the IL-2 Release (pg/mL), ACTR T cells + NCI-H929 Target Cells + hSG16.17SEA (1 µg/mL) [6] of the same binder?
**A.** 178 pg/mL

**Q.** What about the IL-2 Release (pg/mL), ACTR T cells + U266B1 Target Cells + hSG16.17SEA (1 µg/mL) [6] of the same binder?
**A.** 132 pg/mL

**Q.** What about the T-cell proliferation: fold increase in CD3+ cells at 1 µg/mL hSG16.17SEA relative to no antibody, NCI-H929 Target Cells [6] of the same binder?
**A.** 15.8 fold

**Q.** And the T-cell proliferation: fold increase in CD3+ cells at 1 µg/mL hSG16.17SEA relative to no antibody, U266B1 Target Cells [6]?
**A.** 8.72 fold

**Q.** What about the IFNγ Release (pg/mL), ACTR T cells + NCI-H929 Target Cells + hSG16.17SEA (1 µg/mL) [7] of the same binder?
**A.** 14500 pg/mL

**Q.** And the IFNγ Release (pg/mL), ACTR T cells + U266B1 Target Cells + hSG16.17SEA (1 µg/mL) [7]?
**A.** 7580 pg/mL

**Q.** What about the IL-2 Release (pg/mL), ACTR T cells + NCI-H929 Target Cells + hSG16.17SEA (1 µg/mL) [7] of the same binder?
**A.** 119 pg/mL

**Q.** And the IL-2 Release (pg/mL), ACTR T cells + U266B1 Target Cells + hSG16.17SEA (1 µg/mL) [7]?
**A.** 12.3 pg/mL

**Q.** And the T-cell proliferation: fold increase in CD3+ cells at 1 µg/mL hSG16.17SEA relative to no antibody, NCI-H929 Target Cells [7]?
**A.** 6.24 fold

**Q.** What about the T-cell proliferation: fold increase in CD3+ cells at 1 µg/mL hSG16.17SEA relative to no antibody, U266B1 Target Cells [7] of the same binder?
**A.** 2.87 fold

**Q.** What about the IFNγ Release (pg/mL), ACTR T cells + NCI-H929 Target Cells + hSG16.17SEA (1 µg/mL) [8] of the same binder?
**A.** 16000 pg/mL

**Q.** And the IFNγ Release (pg/mL), ACTR T cells + U266B1 Target Cells + hSG16.17SEA (1 µg/mL) [8]?
**A.** 10400 pg/mL

**Q.** And the IL-2 Release (pg/mL), ACTR T cells + NCI-H929 Target Cells + hSG16.17SEA (1 µg/mL) [8]?
**A.** 66.5 pg/mL

**Q.** What about the IL-2 Release (pg/mL), ACTR T cells + U266B1 Target Cells + hSG16.17SEA (1 µg/mL) [8] of the same binder?
**A.** 1.6 pg/mL

**Q.** What about the T-cell proliferation: fold increase in CD3+ cells at 1 µg/mL hSG16.17SEA relative to no antibody, NCI-H929 Target Cells [8] of the same binder?
**A.** 3.76 fold

**Q.** And the T-cell proliferation: fold increase in CD3+ cells at 1 µg/mL hSG16.17SEA relative to no antibody, U266B1 Target Cells [8]?
**A.** 2.82 fold

**Q.** And the IFNγ Release (pg/mL), ACTR T cells + NCI-H929 Target Cells + hSG16.17SEA (1 µg/mL) [9]?
**A.** 6250 pg/mL

**Q.** And the IFNγ Release (pg/mL), ACTR T cells + U266B1 Target Cells + hSG16.17SEA (1 µg/mL) [9]?
**A.** 13700 pg/mL

**Q.** What about the IL-2 Release (pg/mL), ACTR T cells + NCI-H929 Target Cells + hSG16.17SEA (1 µg/mL) [9] of the same binder?
**A.** 262 pg/mL

**Q.** And the IL-2 Release (pg/mL), ACTR T cells + U266B1 Target Cells + hSG16.17SEA (1 µg/mL) [9]?
**A.** 34.8 pg/mL

**Q.** And the T-cell proliferation: fold increase in CD3+ cells at 1 µg/mL hSG16.17SEA relative to no antibody, NCI-H929 Target Cells [9]?
**A.** 80.1 fold

**Q.** And the T-cell proliferation: fold increase in CD3+ cells at 1 µg/mL hSG16.17SEA relative to no antibody, U266B1 Target Cells [9]?
**A.** 52 fold

Source: patent publication US20190381171A1, “CO-USE OF ANTI-BCMA ANTIBODY AND ANTIBODY-COUPLED T CELL RECEPTOR (ACTR) IN CANCER THERAPY AND B CELL DISORDERS” (UNUM THERAPEUTICS INC., priority 2017, published 2019)
